Results as given in patent US20170145092A1 (CHINA SYNTHETIC RUBBER, published 2017).
Values belong to the binder of their own block, whether it stands above or below them.

Biological target: T1, recombinant PLVAP51-442 protein (human, UniProt Q9BX97 51-442)
T1 construct: also called recombinant PLVAP protein; recombinant human PLVAP protein
T1 sequence: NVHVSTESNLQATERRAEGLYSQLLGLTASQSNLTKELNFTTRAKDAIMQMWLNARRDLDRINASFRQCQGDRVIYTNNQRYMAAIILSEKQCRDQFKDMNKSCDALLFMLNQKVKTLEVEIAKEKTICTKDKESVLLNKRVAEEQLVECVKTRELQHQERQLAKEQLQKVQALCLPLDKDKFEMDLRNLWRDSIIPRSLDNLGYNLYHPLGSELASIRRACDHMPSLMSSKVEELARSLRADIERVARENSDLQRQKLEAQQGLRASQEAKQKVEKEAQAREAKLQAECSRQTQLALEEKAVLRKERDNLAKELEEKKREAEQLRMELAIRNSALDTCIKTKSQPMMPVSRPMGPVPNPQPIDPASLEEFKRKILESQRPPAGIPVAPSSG
Assay: ANTQ300 quartz crystal microbalance
Description: Binding affinities of KFCC-GY4 and KFCC-GY5 anti-PLVAP monoclonal antibodies were measured at the ANT Technology Co., Ltd. (Taipei, Taiwan) using ANTQ300 quartz crystal microbalance technology (Lin S., et al. J Immunol Methods 239:121-124 (2000)).

Kd: 60 nM
B1: KFCC-GY4 monoclonal antibody (antibody, V domains shown)
VH: EVQLQQSGAEFVRSGASVKLSCTASGFNIKDYYIHWVKQRPEQGLEWIGWIDPENGDIEYAPKFQGKATMTADTSSNTAYLQFSSLTSEDTAVYYCLYQEGSWGQGTTLTVSS
VL: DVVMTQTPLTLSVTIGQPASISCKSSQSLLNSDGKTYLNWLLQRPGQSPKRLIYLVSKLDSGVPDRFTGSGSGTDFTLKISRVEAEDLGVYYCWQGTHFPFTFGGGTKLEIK
notes: Mouse monoclonal antibody from a hybridoma, purified by Protein G; also called KFCC-GY4 mAb; KFCC-GY4 monoclonal anti-PLVAP antibody

Kd: 41 nM
B2: KFCC-GY5 monoclonal antibody (antibody, V domains shown)
VH: QVQLQQPGAELVRPGASVKLSCKASGYTFTSNYINWVKQRPGQGLEWIGNIYPSDGFTNYNQKFKDRATLTVDKSSSTAYMQLSSPTSEDSAVYYCTRNFDVWGAGTTVTVSS
VL: DVVMTQTPLSLPVSLGDQASISCRSSQSLVHSNGNTYLQWYLQKPGQSPKLLIYTVSNRFSGVPDRFSGSGSGPDFTLKISRVEAEDLGVYFCSQSTHVPFTFGSGTKLEIK
notes: Mouse monoclonal antibody from a hybridoma, purified by Protein G; also called KFCC-GY5 mAb; KFCC-GY5 monoclonal anti-PLVAP antibody
